# Source: paper PMC7671560, “SAXS studies of X-ray induced disulfide bond damage: Engineering high-resolution insight from a low-resolution technique” (PLoS ONE, 2020)
# B1: endoHCYS (FRAGCYS-endoH-His6; Endoglycosidase-H with a 7 aa cysteine-containing fragment on its N-terminus) (enzyme)
# chain: SLSTGCYVKQGPTSVAYVEVNNNSMLNVGKYTLADGGGNAFDVAVIFAANINYDTGTKTAYLHFNENVQRVLDNAVTQIRPLQQQGIKVLLSVLGNHQGAGFANFPSQQAASAFAKQLSDAVAKYGLDGVDFDDEYAEYGNNGTAQPNDSSFVHLVTALRANMPDKIISLYNIGPAASRLSYGGVDVSDKFDYAWNPYYGTWQVPGIALPKAQLSPAAVEIGRTSRSTVADLARRTVDEGYGVYLTYNLDGGDRTADVSAFTRELYGSEAVRTP
# notes: 7 aa fragment with a single free cysteine ('FRAGCYS') attached to the flexible N-terminus of endoH; Endoglycosidase-H (endoH), P04067, aa 47-313; has no native cysteines; The chain is written once as the protomer; two protomers join through an intermolecular disulfide between the cysteines of FRAGCYS (about 75% dimer, 25% monomer in the preparation); The structure's own numbering has Val-8 as the …
# Target: the molecule itself
# Assay: SEC; Superdex 200 10/300 in 20 mM Tris-HCl pH 7.5, 50 mM NaCl, 5 mM EDTA; 100 uL at about 5 mg/ml injected; elution times compared to a standard curve; monomer to disulfide-linked dimer
protein,measurement,value
B1,stoichiometry N,2
